For the assay, the target named is MAGI-1 PDZ1 domain, Cy3-labelled, tag-free (Cy3 label (approximately 1 dye/peptide)). As to the kind of experiment: FRET or BRET. On the technique in general: In BRET a luciferase serves as donor, and the signal depends on an acceptor being close.

Ends that are not written are not given here.

B1: CAR (CAR^Ex7) C-terminus, Cy5-labelled, tag-free (peptide)
peptide: GAIPVMIPAQSKDGSIV
modifications: also: Cy5 label (approximately 1 dye/peptide), site not given here
B1 displayed a Kd of over 500 nM.

By Kd is commonly meant the equilibrium constant for the complex coming apart.

For the origin of these results see PMC4359947 (The international journal of biochemistry & cell biology, 2015).
